This note sets out measurements from patent US20200325220A1 (INSTITUTE FOR RESEARCH IN BIOMEDICINE, published 2020).

In the assay the target is T1, tetanus toxoid (UniProt P04958 2-1315).
T1 construct: also called TT
The assay is described as follows: SPR, antibody captured on protein A, H1 then TT.

T1 sequence (P04958 2-457 limits assumed, chain 1 of 2): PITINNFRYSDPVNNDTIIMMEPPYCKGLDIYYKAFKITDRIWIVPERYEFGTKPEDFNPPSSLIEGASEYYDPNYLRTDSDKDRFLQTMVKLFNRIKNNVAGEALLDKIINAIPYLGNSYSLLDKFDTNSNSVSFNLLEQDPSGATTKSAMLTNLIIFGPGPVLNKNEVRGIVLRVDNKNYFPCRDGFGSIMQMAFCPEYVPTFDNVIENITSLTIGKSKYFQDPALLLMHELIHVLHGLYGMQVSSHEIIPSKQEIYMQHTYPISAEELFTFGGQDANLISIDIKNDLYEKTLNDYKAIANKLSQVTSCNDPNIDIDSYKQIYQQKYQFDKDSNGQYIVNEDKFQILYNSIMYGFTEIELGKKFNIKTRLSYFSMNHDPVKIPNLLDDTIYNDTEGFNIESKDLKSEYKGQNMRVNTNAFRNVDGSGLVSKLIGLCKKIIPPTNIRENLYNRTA
T1 sequence (P04958 458-1315 limits assumed, chain 2 of 2): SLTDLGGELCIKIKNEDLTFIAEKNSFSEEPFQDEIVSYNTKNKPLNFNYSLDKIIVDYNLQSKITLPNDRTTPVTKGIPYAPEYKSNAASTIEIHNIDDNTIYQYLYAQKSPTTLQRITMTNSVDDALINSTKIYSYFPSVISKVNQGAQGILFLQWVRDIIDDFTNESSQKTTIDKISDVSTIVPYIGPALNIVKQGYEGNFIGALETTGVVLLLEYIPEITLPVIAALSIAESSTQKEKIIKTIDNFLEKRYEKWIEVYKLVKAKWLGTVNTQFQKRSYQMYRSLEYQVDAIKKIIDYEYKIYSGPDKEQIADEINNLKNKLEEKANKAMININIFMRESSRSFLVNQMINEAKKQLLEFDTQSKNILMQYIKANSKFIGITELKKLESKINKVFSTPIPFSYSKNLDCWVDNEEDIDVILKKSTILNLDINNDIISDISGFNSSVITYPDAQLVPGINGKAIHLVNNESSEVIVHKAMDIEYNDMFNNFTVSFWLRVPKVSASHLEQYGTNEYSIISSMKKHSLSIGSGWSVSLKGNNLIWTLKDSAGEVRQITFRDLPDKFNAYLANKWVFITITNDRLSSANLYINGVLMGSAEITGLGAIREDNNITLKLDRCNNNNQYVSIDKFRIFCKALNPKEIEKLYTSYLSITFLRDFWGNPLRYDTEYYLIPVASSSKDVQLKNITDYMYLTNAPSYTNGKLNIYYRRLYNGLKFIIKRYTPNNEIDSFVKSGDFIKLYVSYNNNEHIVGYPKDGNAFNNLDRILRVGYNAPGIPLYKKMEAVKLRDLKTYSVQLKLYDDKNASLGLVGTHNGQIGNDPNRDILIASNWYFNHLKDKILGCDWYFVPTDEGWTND

B1: FI174 (antibody, V domains shown)
VH: QVQLVQSGAEVRKPGSSVKVSCKTSGGIIRKYALSWVRQAPGQGLEWMGGIIAIFGTTNYAQKFQGRVTINADESTSTVYLELSSLTSEDTAIYYCAGSATYYESRFDYWGQGTLVTVSS
VL: EIVLTQSPGTLSLSPGARATLSCRASQSVSSSSLAWYQQKPGQAPRLLIYDASSRATGIPDRFSGSGSGTDFTLTISRLEPEDFAVYYCHQYGDSRKTFGQGTKVEIKR
notes: also called F1174; FI74
For the molecule B1, the binding result is recorded as “no binding (tested: tetanus toxoid 50 nM)”.
